A short description of series [1]: Stability of radioligands in PBS buffer (radio-HPLC). Type of series: physicochemical.
Series [2] relates to subcutaneous xenograft tumors (U87 MG cells). In words: Small animal PET imaging and biodistribution study. Type of series: in vivo, NSG mice. The method, boiled down: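 NSG mice bearing ~150 mm^3 subcutaneous U87 MG tumours received ~7.4 MBq of 68Ga-labelled tracer i.v., with micro-PET/CT static 20-min 3D scans at 30, 60 and 120 min. For biodistribution, mice were euthanised at 30/60/120 min, or 30/60/90 min for SDYD07, SDYD08 and SDYD07-1. Tissue radioactivity was decay-corrected and expressed as SUV and %ID/g.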

[3] abbreviates: PBS buffer pH=7.4, 37° C., 0.5 hours.
The mark [4] stands for this setting: PBS buffer pH=7.4, 37° C., 1 hour.
Where [5] appears, read: PBS buffer pH=7.4, 37° C., 2 hours.

Read-outs that look alike come from different tables or passages of the source. *1 amine or outer side, *2 acyl side, *3 side chain or, on linkers, in order; H or OH if unused. Where a SMILES comes first, the peptide text is derived from it. Bridges are numbered along the chain shown (N, C = ends). [ ]: non-standard residue; d: D form. The star is where a group is joined. X1 = N#C[C@@H]1CC(F)(F)CN1C(=O)CNC(=O)c1ccnc2ccc(OCCCN3CCN(*)CC3)cc12; DOTA = O=C(O)CN1CCN(CC(=O)O)CCN(CC(=O)*)CCN(CC(=O)O)CC1; 2Nal = N[C@@H](Cc1ccc2ccccc2c1)C(=O)O; Cit = NC(=O)NCCC[C@H](N)C(=O)O; Suc = O=C(CCC(=O)[*:2])[*:1]; AEEA = NCCOCCOCC(=O)O

As for `N#C[C@@H]1CC(F)(F)CN1C(=O)CNC(=O)c1ccnc2ccc(OCCCN3CCN(C(=O)CCC(=O)N[C@@H](CCCCNC(=O)CN4CCN(CC(=O)O)CCN(CC(=O)O)CCN(CC(=O)O)CC4)C(=O)NCCOCCOCC(=O)NCCOCCOCC(=O)N[C@@H](CCCNC(=N)N)C(=O)N[C@@H](CCCNC(=N)N)C(=O)N[C@@H](Cc4ccc5ccccc5c4)C(=O)N[C@H]4CSSC[C@@H](C(=O)N[C@@H](CCCNC(=N)N)C(N)=O)NC(=O)[C@H](CCCNC(N)=O)NC(=O)[C@H](CCCNC(=N)N)NC(=O)[C@H](Cc5ccc(O)cc5)NC(=O)[C@@H]5CCCN5C(=O)[C@H](CCCCN)NC(=O)[C@H](CCCCN)NC(=O)[C@H](CCCNC(N)=O)NC(=O)[C@H](Cc5ccc(O)cc5)NC4=O)CC3)cc12` [^68Ga-SDYD01, metal not drawn] ({X1-Suc}-K(DOTA)[AEEA][AEEA]RR[2Nal]CY[Cit]KKPYR[Cit]CR-NH2; disulfide 7-16), in series [1], the “stability in PBS buffer (in words)” value is given as “quite stable in PBS buffer”. Further, the “radiochemical purity after incubation in PBS” value came out at 98% in series [1] (setting [3]), 97% in series [1] (setting [4]) and 97% in series [1] (setting [5]). Moreover, the “radioactive uptake in the tumor sites (in words)” value in series [2] (mouse, in vivo) is reported as “significant radioactive uptake in the tumor sites”.
On to `CCCCCC(=O)N[C@H]1CSCc2cc(CSCCNC(=O)[C@H](CCCCNC(=O)CN3CCN(CC(=O)O)CCN(CC(=O)O)CCN(CC(=O)O)CC3)NC(=O)COCCOCCNC(=O)COCCOCCNC(=O)CCN3C(=O)CC(SCCNC(=O)CCC(=O)NCc4ccc(NC(=O)COCC(=O)N[C@H](Cc5ccccc5)C(=O)N[C@@H](CCC(N)=O)C(=O)N[C@@H](Cc5c[nH]c6ccccc56)C(=O)N[C@@H](C)C(=O)N[C@H](C(=O)NCC(=O)N[C@@H](Cc5c[nH]cn5)C(=O)NC(CC(C)C)CC(C)C)C(C)C)cc4)C3=O)cc(c2)CSC[C@@H](C(=O)O)NC(=O)[C@H](Cc2ccccc2)NC(=O)[C@H](CCC(N)=O)NC(=O)C([C@@H](C)O)NC(=O)[C@@H]2CCCN2C(=O)[C@@H]2CCCN2C1=O` (stereo partly shown) [^68Ga-SDYD04, metal not drawn], for which, in series [1] (PBS buffer pH=7.4, 37° C.), the “stability in PBS buffer (in words)” value was “quite stable in PBS buffer”. Also, the “radiochemical purity after incubation in PBS” value in series [1] (setting [3]) was 97%; in series [1] (setting [4]), 97%; in series [1] (setting [5]) it was 95%. Also, the “radioactive uptake in the tumor sites (in words)” value in series [2] (tail vein injection, U87 MG tumor-bearing NSG mice) is “significant radioactive uptake in the tumor sites”.

The values above are taken from patent US20260069728A1, “MULTI-TARGETING COMPOUND AND USE THEREOF” (Chengdu Shetai Medical Technology Co., Ltd., priority 2023, published 2026).
